What was measured:
HuR (GST-HuR) = HuR (GST-HuR) (UniProt Q15717 1-326); assay: EMSA
FXR1 (GST-FXR1) [1] = molecular target: T1, FXR1 (GST-FXR1) (Homo sapiens, UniProt P51114 1-621); assay: EMSA
FXR1 (GST-FXR1) [2] = molecular target: T1, FXR1 (GST-FXR1); assay: EMSA; remark: listed apart in the source
FXR1 (GST-FXR1) [3] = molecular target: T1, FXR1 (GST-FXR1); assay: competition EMSA

T1 sequence (P51114 whole entry): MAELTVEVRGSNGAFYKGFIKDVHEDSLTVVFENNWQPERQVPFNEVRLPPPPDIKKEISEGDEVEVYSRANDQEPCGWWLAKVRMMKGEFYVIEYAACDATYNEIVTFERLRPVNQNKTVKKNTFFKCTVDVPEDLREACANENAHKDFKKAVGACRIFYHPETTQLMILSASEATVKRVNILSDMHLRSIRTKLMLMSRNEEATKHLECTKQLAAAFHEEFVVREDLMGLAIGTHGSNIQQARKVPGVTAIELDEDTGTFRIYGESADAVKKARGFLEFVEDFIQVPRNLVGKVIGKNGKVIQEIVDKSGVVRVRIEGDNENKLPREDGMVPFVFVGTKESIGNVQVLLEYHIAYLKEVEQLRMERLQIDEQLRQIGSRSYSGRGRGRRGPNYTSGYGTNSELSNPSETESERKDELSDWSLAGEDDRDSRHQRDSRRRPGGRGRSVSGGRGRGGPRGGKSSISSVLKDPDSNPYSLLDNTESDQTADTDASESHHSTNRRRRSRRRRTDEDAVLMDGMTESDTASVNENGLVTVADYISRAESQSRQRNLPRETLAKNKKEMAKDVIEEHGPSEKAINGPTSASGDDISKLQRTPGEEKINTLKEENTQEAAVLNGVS
Chain of HuR (GST-HuR) (Q15717 whole entry): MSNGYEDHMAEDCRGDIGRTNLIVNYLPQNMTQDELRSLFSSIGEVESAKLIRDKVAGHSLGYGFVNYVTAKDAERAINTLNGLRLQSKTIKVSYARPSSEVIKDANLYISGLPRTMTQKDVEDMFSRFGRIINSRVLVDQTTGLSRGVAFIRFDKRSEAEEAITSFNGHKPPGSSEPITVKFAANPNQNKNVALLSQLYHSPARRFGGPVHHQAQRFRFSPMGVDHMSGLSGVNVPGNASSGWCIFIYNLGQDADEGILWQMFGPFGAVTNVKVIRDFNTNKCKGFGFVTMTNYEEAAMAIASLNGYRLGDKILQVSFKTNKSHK

## CUUGUGAUUAUUUAUUAUUUAUUUAUUAUUUAUUUAUUUACAGAGAUGAA (ssRNA) [TNFα 3'UTR 50-mer (probe A)]
HuR (GST-HuR)
  binding result: binds
FXR1 (GST-FXR1) [1]
  binding result: binds

## AUUUA (ssRNA) [AUUUA monomer]
FXR1 (GST-FXR1) [2]
  binding result: no binding

## AUUUAAUUUAAUUUAAUUUAAUUUA (ssRNA) [(AUUUA)5 (probe B)]
FXR1 (GST-FXR1) [3]
  binding result: binds

## UUAUUUAUUUUAUUUAUUUUAUUUAUU (ssRNA) [(UUAUUUAUU)3 (probe C)]
FXR1 (GST-FXR1) [3]
  binding result: binds
